Article PMC11371640, “Structural deficits in key domains of Shank2 lead to alterations in postsynaptic nanoclusters and to a neurodevelopmental disorder in humans” (Molecular Psychiatry, 2022)

B1: His6-SUMO-tagged SH3 to PDZ domains of Shank2 (R520-D727), WT [not stated (human or rat cDNA cloned)] / synthetic peptide of the complete PDZ ligand of GKAP (last 15 amino acids of GKAP/SAPAP1) [not stated] (parent)
chain 1: RKLYSAVPGRLFVAVKPYQPQVDGEIPLHRGDRVKVLSIGEGGFWEGSARGHIGWFPAECVEEVQCKPRDSQAETRADRSKKLFRHYTVGSYDSFDTSSDCIIEEKTVVLQKKDNEGFGFVLRGAKADTPIEEFTPTPAFPALQYLESVDEGGVAWQAGLRTGDFLIEVNNENVVKVGHRQVVNMIRQGGNHLVLKVVTVTRNLDPDD
chain 2: ADSIEIYIPEAQTRL

Variants of: B1
Assay: ITC
Conditions: with synthetic peptide of the complete PDZ ligand of GKAP (last 15 amino acids of GKAP/SAPAP1); parent: 1

| Variant | ratio to parent |
| --- | --- |
| chain 1 N171S | 1.3 |
| chain 1 S91Y | 2.8 |
| chain 1 V198F | 2.6 |
